# Results as given in paper doi:10.1101/2020.05.05.065912.
# Where two headings read alike, the source gives them in different places.
# B1: GFP-NDP52 (natural protein)
# chain: MEETIKDPPTSAVLLDHCHFSQVIFNSVEKFYIPGGDVTCHYTFTQHFIPRRKDWIGIFRVGWKTTREYYTFMWVTLPIDLNNKSAKQQEVQFKAYYLPKDDEYYQFCYVDEDGVVRGASIPFQFRPENEEDILVVTTQGEVEEIEQHNKELCKENQELKDSCISLQKQNSDMQAELQKKQEELETLQSINKKLELKVKEQKDYWETELLQLKEQNQKMSSENEKMGIRVDQLQAQLSTQEKEMEKLVQGDQDKTEQLEQLKKENDHLFLSLTEQRKDQKKLEQTVEQMKQNETTAMKKQQELMDENFDLSKRLSENEIICNALQRQKERLEGENDLLKRENSRLLSYMGLDFNSLPYQVPTSDEGGARQNPGLAYGNPYSGIQESSSPSPLSIKKCPICKADDICDHTLEQQQMQPLCFNCPICDKIFPATEKQIFEDHVFCHSL
# How the values were obtained:
# BRS-Myosin VI Tail-mRFP [1] = molecular target: BRS-Myosin VI Tail-mRFP (UniProt Q9UM54); assay: FRET or BRET
# Sequence of UniProt Q9UM54 (Q9UM54 whole entry): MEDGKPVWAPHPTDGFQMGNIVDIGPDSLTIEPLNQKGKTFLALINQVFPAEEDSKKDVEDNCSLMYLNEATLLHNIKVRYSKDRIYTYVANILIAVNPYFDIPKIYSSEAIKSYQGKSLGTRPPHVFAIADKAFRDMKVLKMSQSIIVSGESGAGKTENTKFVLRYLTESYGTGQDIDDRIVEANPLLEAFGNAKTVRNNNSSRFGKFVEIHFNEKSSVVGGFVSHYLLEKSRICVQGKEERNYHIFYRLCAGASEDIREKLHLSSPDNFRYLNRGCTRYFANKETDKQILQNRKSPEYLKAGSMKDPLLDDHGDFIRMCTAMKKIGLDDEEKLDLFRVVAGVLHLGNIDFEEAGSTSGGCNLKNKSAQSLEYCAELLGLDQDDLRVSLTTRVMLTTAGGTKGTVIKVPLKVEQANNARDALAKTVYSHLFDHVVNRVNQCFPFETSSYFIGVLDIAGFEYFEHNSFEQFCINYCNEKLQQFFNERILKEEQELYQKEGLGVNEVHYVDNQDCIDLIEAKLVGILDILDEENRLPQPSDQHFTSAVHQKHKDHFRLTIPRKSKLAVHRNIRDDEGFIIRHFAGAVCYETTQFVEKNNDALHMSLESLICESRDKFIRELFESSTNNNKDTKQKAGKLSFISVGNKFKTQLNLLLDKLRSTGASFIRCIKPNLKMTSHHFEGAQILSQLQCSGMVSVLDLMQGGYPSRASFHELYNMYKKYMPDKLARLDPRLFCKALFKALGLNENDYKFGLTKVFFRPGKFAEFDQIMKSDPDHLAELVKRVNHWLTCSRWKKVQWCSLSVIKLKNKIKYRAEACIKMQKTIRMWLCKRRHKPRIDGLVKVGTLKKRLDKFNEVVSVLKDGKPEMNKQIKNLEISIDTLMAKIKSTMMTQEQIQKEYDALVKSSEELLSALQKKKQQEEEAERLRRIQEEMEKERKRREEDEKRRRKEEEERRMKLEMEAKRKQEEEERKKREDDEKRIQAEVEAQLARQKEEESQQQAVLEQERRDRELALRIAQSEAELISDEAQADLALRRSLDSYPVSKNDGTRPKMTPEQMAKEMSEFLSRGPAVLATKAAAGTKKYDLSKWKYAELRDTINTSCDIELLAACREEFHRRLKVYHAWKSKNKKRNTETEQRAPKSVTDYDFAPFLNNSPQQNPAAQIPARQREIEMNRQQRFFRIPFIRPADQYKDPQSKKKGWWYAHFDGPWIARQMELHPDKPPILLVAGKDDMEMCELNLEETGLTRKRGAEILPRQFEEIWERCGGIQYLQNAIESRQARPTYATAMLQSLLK
# BRS-Myosin VI Tail-mRFP [2] = molecular target: BRS-Myosin VI Tail-mRFP (UniProt Q9UM54); assay: FRET or BRET; remark: listed apart in the source
binder,measurement,setting,value
B1,Kd,BRS-Myosin VI Tail-mRFP [1],1.1 µM
same,Kd,BRS-Myosin VI Tail-mRFP [2],3.9 µM
